Experiment [1] concerns the target pneumolysin (PLY) recombinant protein (Streptococcus pneumoniae, UniProt Q04IN8 1-471).
In experiment [2] the target is T1, attenuated PLY mut recombinant protein (pneumolysin with alanine 146 deleted) (Streptococcus pneumoniae, UniProt Q04IN8 1-471).
T1 construct: The change is a deletion of A146, not a substitution ('-' under new means deleted); Expressed in E. coli BL21 (DE3) plysS with a C-terminal His tag; also called PLYmut protein; PLY mut antigen; not shown: C-terminal His tag
The experiment can be described thus: ELISA, PLYmut coated at 0.1 µg/well, antibody in 2-fold dilutions, HRP goat anti-human IgG. (In general: In an ELISA, binding on a coated surface is turned into a signal by an enzyme label.)

B1: humanized antibody 2E5H3L0 (antibody, human IgG1, kappa, V domains shown)
VH: EVQLVESGGGLVQPGGSLKLSCAASGYTFGDNWMNWVRQASGKGLEWVGEIRLKSNNYATRYAESVKGRFTISRDDSKNTVYLQMNSLKTEDTAVYYCTRTQFITSVVAPFDFWGQGTTVTVSS
VL: not shown
notes: also called 2E5H3L0 humanized antibody; hu2E5VH3CH/hu2E5VL0CL
On to B1, for which the EC50 in experiment [1] was 0.0203 µg/mL; in experiment [2] it was 0.0162 µg/mL.

B2: 2E5 mouse/human chimeric antibody (2E5HL) (antibody, human IgG1, kappa, V domains shown)
VH: EVKVEESGGGSVQPGGSMKLSCVASGYTFGDNWMNWVRQSPEKGLEWVAEIRLKSNNYATRYAESVKGRFTISRDDSKSSVYLQMNNLRTEDTGIYYCTRTQFITSVVAPFDFWGQGTTLTVSS
VL: not shown
notes: also called 2E5HL human-mouse chimeric antibody; c2E5VHCH/c2E5VLCL
With B2, the EC50 in experiment [1] turned out to be 0.0171 µg/mL; in experiment [2], 0.0158 µg/mL.

The term EC50 denotes the concentration giving half of the maximal effect.

These data come from patent publication US20240174736A1 (STARMAB BIOLOGICS SUZHOU, published 2024).
